In patent publication EP4752227A2:

Molecular target: CD3 (human) (UniProt P07766)
Assay: cell-based or functional assay

UniProt P07766, sequence (P07766 23-207): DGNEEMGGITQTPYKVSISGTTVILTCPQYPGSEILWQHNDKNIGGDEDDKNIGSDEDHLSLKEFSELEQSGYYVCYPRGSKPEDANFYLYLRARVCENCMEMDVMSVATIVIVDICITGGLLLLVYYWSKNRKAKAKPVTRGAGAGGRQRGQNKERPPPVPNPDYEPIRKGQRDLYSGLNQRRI

| Substance | Transduction efficiencies as measured by CD3+GFP+ cells at Day 6 |
| --- | --- |
| soluble anti-CD3 antibody clone UCHT1 | 0.52% |
| soluble anti-CD3 antibody clone HIT3A | 4.31% |
| soluble anti-CD3 antibody clone OKT3 | 3.27% |
